Source: publication PMC10603098

Legend:
[1] = target: GluA tetramers (sum of all co-purified GluA1-4 proteins divided by four) (rat (endogenous in rat brain)); assay: affinity purification with mass spectrometry; multi-epitope AP-MS: three polyclonal anti-GSG1L antibodies on protein A Dynabeads, 2 h; membranes of adult (P59) rat brain solubilised in CL-47; GSG1L KO rats as negative control; minimum tnR of 0.25 as indicator of specific interaction
[2] = target: homomeric GluA2Q_(flip) AMPA receptor, wild type (rat) (UniProt P19491)
[3] = target: GluA1/GluA2(R) E658K AMPA receptor heteromer (rat) (UniProt P19490)
[4] = target: GluA1/GluA2(R) AMPA receptor heteromer, wild type (rat) (UniProt P19490)
[5] = target: GluA1 E651K/GluA2(R) AMPA receptor heteromer (rat) (UniProt P19490)
[6] = target: GluA1 E651K/GluA2(R) E658K AMPA receptor heteromer (rat) (UniProt P19490)
[7] = target: homomeric GluA2Q_(flip) E658K AMPA receptor (rat) (UniProt P19491)

Row | Substance | stoichiometry N (GSG1L per GluA tetramer) [1] | fast time constant of recovery from desensitization (τ (recovery), two-pulse protocol, 10 mM L-Glu, outside-out patches of HEK293T/17 cells co-expressing GluA2 and GSG1L) [2] [ms] | slow time constant of recovery from desensitization (τ (recovery), two-pulse protocol, 10 mM L-Glu, outside-out patches of HEK293T/17 cells co-expressing GluA2 and GSG1L) [2] [ms] | fast time constant of recovery from desensitization of heteromers with EK on GluA2 only, co-expressed with GSG1L [3] [ms] | slow time constant of recovery from desensitization of heteromers with EK on GluA2 only, co-expressed with GSG1L [3] [ms] | fast time constant of recovery from desensitization of GluA1/A2 heteromers co-expressed with GSG1L [4] [ms] | slow time constant of recovery from desensitization of GluA1/A2 heteromers co-expressed with GSG1L [4] [ms] | time constant of recovery from desensitization (mono-exponential) of heteromers with EK on GluA1 only, co-expressed with GSG1L [5] [ms] | single time constant of recovery from desensitization of heteromers with EK on both GluA1 and GluA2, co-expressed with GSG1L [6] [ms] | single time constant of recovery from desensitization of GluA2 E658K co-expressed with GSG1L (the mutation eliminated the ability of GSG1L to slow recovery) [7] [ms]
1 | germ cell-specific gene 1-like protein (GSG1L) (from UniProt D3ZK93 1-322) (natural protein) | 1.74 | – | – | – | – | – | – | – | – | –
2 | mouse GSG1L (co-expressed, +GSG1L) (from UniProt D3Z7H4 1-322) (natural protein) | – | 37.5 | 322 | 80.6 | 446 | 23.7 | 548 | 338 | 130 | 48
